This is an account of results in article PMC6078998, “Functional activity of the H3.3 histone chaperone complex HIRA requires trimerization of the HIRA subunit” (Nature Communications, 2018).

Data set [1] concerns the molecule itself. The data set is described as follows: SEC-MALS; HIRA(644–1017) purified in 500 mM NaCl.
For data set [2], the target named is T1, CABIN1 full length (FL), recombinant (UniProt Q9Y6J0 1-2220).
T1 construct: theoretical molecular weight printed as 246,352 Da; the discussion says 2200 amino-acid residues; Cloned into pFastBac HTA; No removal of the His tag is described; also called CABIN1 FL; FL His-CABIN1
Nature of the data set: SEC; Superose 6 10/300 GL fractionation; ~100 μM HIRA fragment incubated with ~20 μM CABIN1 FL in 500 μl, 30 min at 4 °C; 20 mM Tris pH 8.0, 300 mM NaCl, 1 mM TCEP. The note with it: both partners purified.

Data set [3] deals with the molecule itself. Nature of the data set: AUC; sedimentation equilibrium of single purified proteins, 4 °C, 280 nm, 2–3 concentrations, multiple speeds; 20 mM Tris pH 8.0, 300 mM NaCl, 1 mM TCEP; Heteroanalysis and SEDPHAT; the constant of HIRA is of a monomer–trimer equilibrium model.

Positions count from the first letter of the chain named.

T1 sequence (Q9Y6J0 whole entry): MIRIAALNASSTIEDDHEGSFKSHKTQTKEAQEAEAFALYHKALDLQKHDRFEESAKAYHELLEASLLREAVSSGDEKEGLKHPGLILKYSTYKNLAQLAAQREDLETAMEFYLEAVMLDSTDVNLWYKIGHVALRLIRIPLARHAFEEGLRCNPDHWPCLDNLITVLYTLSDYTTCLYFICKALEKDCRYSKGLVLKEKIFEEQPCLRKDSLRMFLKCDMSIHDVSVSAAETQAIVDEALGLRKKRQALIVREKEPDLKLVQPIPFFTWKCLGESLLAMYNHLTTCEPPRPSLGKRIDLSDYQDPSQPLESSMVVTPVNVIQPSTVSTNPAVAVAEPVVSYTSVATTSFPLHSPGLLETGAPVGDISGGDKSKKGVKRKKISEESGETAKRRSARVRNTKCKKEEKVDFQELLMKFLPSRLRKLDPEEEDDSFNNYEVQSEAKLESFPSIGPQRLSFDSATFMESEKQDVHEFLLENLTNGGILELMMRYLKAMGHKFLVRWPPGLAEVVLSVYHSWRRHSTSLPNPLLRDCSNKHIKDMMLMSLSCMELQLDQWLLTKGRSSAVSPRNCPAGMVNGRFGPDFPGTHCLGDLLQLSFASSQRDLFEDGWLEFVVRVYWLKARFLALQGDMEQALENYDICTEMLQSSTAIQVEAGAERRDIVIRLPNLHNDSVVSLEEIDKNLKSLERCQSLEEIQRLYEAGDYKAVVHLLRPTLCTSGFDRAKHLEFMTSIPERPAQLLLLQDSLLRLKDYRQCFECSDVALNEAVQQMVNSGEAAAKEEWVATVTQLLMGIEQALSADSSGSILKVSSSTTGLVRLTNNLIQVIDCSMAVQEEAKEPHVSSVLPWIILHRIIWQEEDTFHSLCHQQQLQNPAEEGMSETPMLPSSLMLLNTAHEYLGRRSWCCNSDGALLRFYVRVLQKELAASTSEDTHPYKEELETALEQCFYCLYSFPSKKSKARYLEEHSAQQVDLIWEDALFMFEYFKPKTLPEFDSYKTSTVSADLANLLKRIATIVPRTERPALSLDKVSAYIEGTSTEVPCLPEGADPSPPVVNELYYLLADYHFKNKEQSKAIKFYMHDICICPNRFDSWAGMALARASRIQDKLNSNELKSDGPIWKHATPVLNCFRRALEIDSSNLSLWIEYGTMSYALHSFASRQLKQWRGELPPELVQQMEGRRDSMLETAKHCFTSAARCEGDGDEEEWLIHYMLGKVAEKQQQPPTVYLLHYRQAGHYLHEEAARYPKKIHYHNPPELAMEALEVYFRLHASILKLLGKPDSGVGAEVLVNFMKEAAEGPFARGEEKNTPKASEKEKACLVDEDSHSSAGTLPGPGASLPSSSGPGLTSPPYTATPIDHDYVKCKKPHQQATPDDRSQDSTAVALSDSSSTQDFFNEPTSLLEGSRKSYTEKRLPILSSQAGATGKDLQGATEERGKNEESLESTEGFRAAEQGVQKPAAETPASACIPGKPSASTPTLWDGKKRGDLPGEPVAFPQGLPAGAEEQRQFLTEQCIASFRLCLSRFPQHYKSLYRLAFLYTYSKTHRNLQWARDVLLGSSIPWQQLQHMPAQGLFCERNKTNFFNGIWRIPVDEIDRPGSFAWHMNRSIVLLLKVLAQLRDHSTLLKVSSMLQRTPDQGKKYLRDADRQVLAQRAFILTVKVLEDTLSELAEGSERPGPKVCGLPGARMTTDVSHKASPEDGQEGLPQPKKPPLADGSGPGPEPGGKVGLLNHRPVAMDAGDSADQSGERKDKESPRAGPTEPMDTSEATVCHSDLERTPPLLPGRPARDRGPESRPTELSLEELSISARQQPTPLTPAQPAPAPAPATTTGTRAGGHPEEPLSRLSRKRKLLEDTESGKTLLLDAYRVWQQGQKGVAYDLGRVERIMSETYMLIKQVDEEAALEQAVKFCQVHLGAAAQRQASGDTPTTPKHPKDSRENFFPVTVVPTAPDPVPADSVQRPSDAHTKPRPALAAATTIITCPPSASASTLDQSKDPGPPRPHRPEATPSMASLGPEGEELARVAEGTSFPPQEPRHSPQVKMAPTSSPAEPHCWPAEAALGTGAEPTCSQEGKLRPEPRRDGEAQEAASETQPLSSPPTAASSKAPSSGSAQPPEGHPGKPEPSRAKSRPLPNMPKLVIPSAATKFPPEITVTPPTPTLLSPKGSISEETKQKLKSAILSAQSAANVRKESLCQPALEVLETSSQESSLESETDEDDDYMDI

B1: HIRA(644–1017) (domain or fragment, human)
chain: GRPRKDSRLMPVSLSVQSPAALTAEKEAMCLSAPALALKLPIPSPQRAFTLQVSSDPSMYIEVENEVTVVGGVKLSRLKCNREGKEWETVLTSRILTAAGSCDVVCVACEKRMLSVFSTCGRRLLSPILLPSPISTLHCTGSYVMALTAAATLSVWDVHRQVVVVKEESLHSILAGSDMTVSQILLTQHGIPVMNLSDGKAYCFNPSLSTWNLVSDKQDSLAQCADFRSSLPSQDAMLCSGPLAIIQGRTSNSGRQAARLFSVPHVVQQETTLAYLENQVAAALTLQSSHEYRHWLLVYARYLVNEGFEYRLREICKDLLGPVHYSTGSQWESTVVGLRKRELLKELLPVIGQNLRFQRLFTECQEQLDILRDKLEGSS
notes: Cloned by NdeI/XhoI into pTXB1 (pYHD1); the forward primer has ATG before the first HIRA codon, so a start methionine may stand in front; A Se-Met labelled form was used for phasing only; Theoretical trimer weight printed as 125,815 Da; source: E. coli BL21(DE3), purified (chitin beads, on-column intein cleavage, Superdex 200); not shown: Intein (chitin beads), C-terminal, cleaved
With B1, the “stoichiometry N” value in data set [1] was found to be 3.

B2: recombinant human HIRA(661–1017) (domain or fragment, UniProt P54198 661-1017, looked up)
chain: SPAALTAEKEAMCLSAPALALKLPIPSPQRAFTLQVSSDPSMYIEVENEVTVVGGVKLSRLKCNREGKEWETVLTSRILTAAGSCDVVCVACEKRMLSVFSTCGRRLLSPILLPSPISTLHCTGSYVMALTAAATLSVWDVHRQVVVVKEESLHSILAGSDMTVSQILLTQHGIPVMNLSDGKAYCFNPSLSTWNLVSDKQDSLAQCADFRSSLPSQDAMLCSGPLAIIQGRTSNSGRQAARLFSVPHVVQQETTLAYLENQVAAALTLQSSHEYRHWLLVYARYLVNEGFEYRLREICKDLLGPVHYSTGSQWESTVVGLRKRELLKELLPVIGQNLRFQRLFTECQEQLDILRDK
notes: Theoretical molecular weight of the homotrimer printed as 118,710 Da; also called HIRA trimer; not shown: GST, N-terminal, cleaved
Regarding B2, the binding result in data set [2] is “binds”. The “stoichiometry N” value in data set [3] came to 3.

B3: recombinant HIRA(661–1017 + FRL870-871-874AAA) (domain or fragment, human, UniProt P54198 661-1017, looked up)
chain: B2 chain with F210A, R211A, L214A
notes: not shown: GST, N-terminal, cleaved
With B3, in data set [2], the binding result was “binds”.

B4: recombinant HIRA(661–1017) Δ873–904 (domain or fragment, human, UniProt P54198 661-1017, looked up)
chain: SPAALTAEKEAMCLSAPALALKLPIPSPQRAFTLQVSSDPSMYIEVENEVTVVGGVKLSRLKCNREGKEWETVLTSRILTAAGSCDVVCVACEKRMLSVFSTCGRRLLSPILLPSPISTLHCTGSYVMALTAAATLSVWDVHRQVVVVKEESLHSILAGSDMTVSQILLTQHGIPVMNLSDGKAYCFNPSLSTWNLVSDKQDSLAQCADFRSSVPHVVQQETTLAYLENQVAAALTLQSSHEYRHWLLVYARYLVNEGFEYRLREICKDLLGPVHYSTGSQWESTVVGLRKRELLKELLPVIGQNLRFQRLFTECQEQLDILRDK
notes: also called loop deletion mutant; not shown: GST, N-terminal, cleaved
Regarding B4, the binding result in data set [2] was “binds”. Moreover, in data set [3], the “stoichiometry N” value came to 3.

In general, stoichiometry N refers to a count of units in the complex or per binding partner.
